Source: patent publication US20140087995A1 (published 2014)
Numbered stars: 1 amine (or outer) side, 2 acyl side, 3 side chain; on linkers, the order of the positions; unused ones are H or OH. Bridge positions count the residues as written; N and C are the ends. Side chains are listed from the residue outwards. Ends that are not written are not given here. * marks the point of attachment. C20 diacid = O=C(O)CCCCCCCCCCCCCCCCCCC(=O)*; C18 diacid = O=C(O)CCCCCCCCCCCCCCCCC(=O)*; C16 diacid = O=C(O)CCCCCCCCCCCCCCC(=O)*; γGlu = O=C(O)[C@H](CCC(=O)[*:2])N[*:1]; AEEA = NCCOCCOCC(=O)O

T1: human calcitonin receptor (human, UniProt P30988 25-474)
T1 construct: whole, on cells; Used as cell membranes; also called hCTR; hCT
T1 sequence (looked up): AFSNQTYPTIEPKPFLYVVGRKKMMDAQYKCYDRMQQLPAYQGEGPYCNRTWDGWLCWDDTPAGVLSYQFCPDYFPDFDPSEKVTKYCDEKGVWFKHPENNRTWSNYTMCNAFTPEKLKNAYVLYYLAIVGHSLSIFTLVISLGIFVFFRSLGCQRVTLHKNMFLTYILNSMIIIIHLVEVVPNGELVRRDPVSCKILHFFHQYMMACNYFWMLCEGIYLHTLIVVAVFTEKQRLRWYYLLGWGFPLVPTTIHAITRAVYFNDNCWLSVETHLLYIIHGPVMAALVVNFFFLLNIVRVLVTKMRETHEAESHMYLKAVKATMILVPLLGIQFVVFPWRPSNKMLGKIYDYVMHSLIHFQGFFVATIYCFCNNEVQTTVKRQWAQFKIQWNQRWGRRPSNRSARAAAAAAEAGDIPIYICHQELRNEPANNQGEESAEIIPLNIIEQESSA

T2: human calcitonin receptor (human, UniProt P30988 25-474)
T2 construct: whole, on cells; also called hCTR; hCT
T2 sequence (looked up): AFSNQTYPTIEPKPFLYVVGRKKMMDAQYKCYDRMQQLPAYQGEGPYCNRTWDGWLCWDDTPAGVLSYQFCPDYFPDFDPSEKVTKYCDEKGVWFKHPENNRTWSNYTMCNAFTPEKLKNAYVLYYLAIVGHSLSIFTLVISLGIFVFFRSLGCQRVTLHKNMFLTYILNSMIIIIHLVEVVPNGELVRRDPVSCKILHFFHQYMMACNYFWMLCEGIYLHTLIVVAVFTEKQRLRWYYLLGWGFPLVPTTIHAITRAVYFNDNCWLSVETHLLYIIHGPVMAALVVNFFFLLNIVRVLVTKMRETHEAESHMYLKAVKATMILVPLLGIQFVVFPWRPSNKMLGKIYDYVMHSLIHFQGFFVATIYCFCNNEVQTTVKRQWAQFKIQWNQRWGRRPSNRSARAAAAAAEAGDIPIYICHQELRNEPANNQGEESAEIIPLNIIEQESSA

B1: N^ε1-[(4S)-4-carboxy-4-(15-carboxypentadecanoylamino)butanoyl]-[Arg17,Pro21,Pro27,His34]-h-amylin (peptide)
peptide: K([γGlu-C16 diacid])CNTATCATQRLANFLRHSSPNFGAIPSSTNVGHNTY-NH2
modifications: disulfide 2-7; N-terminus assumed
SMILES: CC[C@H](C)[C@H](NC(=O)[C@H](C)NC(=O)CNC(=O)[C@H](Cc1ccccc1)NC(=O)[C@H](CC(N)=O)NC(=O)[C@@H]1CCCN1C(=O)[C@H](CO)NC(=O)[C@H](CO)NC(=O)[C@H](Cc1c[nH]cn1)NC(=O)[C@H](CCCNC(=N)N)NC(=O)[C@H](CC(C)C)NC(=O)[C@H](Cc1ccccc1)NC(=O)[C@H](CC(N)=O)NC(=O)[C@H](C)NC(=O)[C@H](CC(C)C)NC(=O)[C@H](CCCNC(=N)N)NC(=O)[C@H](CCC(N)=O)NC(=O)[C@@H](NC(=O)[C@H](C)NC(=O)[C@@H]1CSSC[C@H](NC(=O)[C@@H](N)CCCCNC(=O)CC[C@H](NC(=O)CCCCCCCCCCCCCCC(=O)O)C(=O)O)C(=O)N[C@@H](CC(N)=O)C(=O)N[C@@H]([C@@H](C)O)C(=O)N[C@@H](C)C(=O)N[C@@H]([C@@H](C)O)C(=O)N1)[C@@H](C)O)C(=O)N1CCC[C@H]1C(=O)N[C@@H](CO)C(=O)N[C@@H](CO)C(=O)N[C@H](C(=O)N[C@@H](CC(N)=O)C(=O)N[C@H](C(=O)NCC(=O)N[C@@H](Cc1c[nH]cn1)C(=O)N[C@@H](CC(N)=O)C(=O)N[C@H](C(=O)N[C@@H](Cc1ccc(O)cc1)C(N)=O)[C@@H](C)O)C(C)C)[C@@H](C)O
B2: N^ε1-[(4S)-4-carboxy-4-(17-carboxyheptadecanoylamino)butanoyl]-[Arg17,Pro21,Pro27,His34]-h-amylin (peptide)
peptide: K([γGlu-C18 diacid])CNTATCATQRLANFLRHSSPNFGAIPSSTNVGHNTY-NH2
modifications: disulfide 2-7; N-terminus assumed
SMILES: CC[C@H](C)[C@H](NC(=O)[C@H](C)NC(=O)CNC(=O)[C@H](Cc1ccccc1)NC(=O)[C@H](CC(N)=O)NC(=O)[C@@H]1CCCN1C(=O)[C@H](CO)NC(=O)[C@H](CO)NC(=O)[C@H](Cc1c[nH]cn1)NC(=O)[C@H](CCCNC(=N)N)NC(=O)[C@H](CC(C)C)NC(=O)[C@H](Cc1ccccc1)NC(=O)[C@H](CC(N)=O)NC(=O)[C@H](C)NC(=O)[C@H](CC(C)C)NC(=O)[C@H](CCCNC(=N)N)NC(=O)[C@H](CCC(N)=O)NC(=O)[C@@H](NC(=O)[C@H](C)NC(=O)[C@@H]1CSSC[C@H](NC(=O)[C@@H](N)CCCCNC(=O)CC[C@H](NC(=O)CCCCCCCCCCCCCCCCC(=O)O)C(=O)O)C(=O)N[C@@H](CC(N)=O)C(=O)N[C@@H]([C@@H](C)O)C(=O)N[C@@H](C)C(=O)N[C@@H]([C@@H](C)O)C(=O)N1)[C@@H](C)O)C(=O)N1CCC[C@H]1C(=O)N[C@@H](CO)C(=O)N[C@@H](CO)C(=O)N[C@H](C(=O)N[C@@H](CC(N)=O)C(=O)N[C@H](C(=O)NCC(=O)N[C@@H](Cc1c[nH]cn1)C(=O)N[C@@H](CC(N)=O)C(=O)N[C@H](C(=O)N[C@@H](Cc1ccc(O)cc1)C(N)=O)[C@@H](C)O)C(C)C)[C@@H](C)O
B3: N^ε1-[2-[2-[2-[[(4S)-4-carboxy-4-(19-carboxynonadecanoylamino)butanoyl]amino]ethoxy]ethoxy]acetyl]-[Arg17,Pro21,Pro27,His34]-h-amylin (peptide)
peptide: K([AEEA-γGlu-C20 diacid])CNTATCATQRLANFLRHSSPNFGAIPSSTNVGHNTY-NH2
modifications: disulfide 2-7; N-terminus assumed
SMILES: CC[C@H](C)[C@H](NC(=O)[C@H](C)NC(=O)CNC(=O)[C@H](Cc1ccccc1)NC(=O)[C@H](CC(N)=O)NC(=O)[C@@H]1CCCN1C(=O)[C@H](CO)NC(=O)[C@H](CO)NC(=O)[C@H](Cc1c[nH]cn1)NC(=O)[C@H](CCCNC(=N)N)NC(=O)[C@H](CC(C)C)NC(=O)[C@H](Cc1ccccc1)NC(=O)[C@H](CC(N)=O)NC(=O)[C@H](C)NC(=O)[C@H](CC(C)C)NC(=O)[C@H](CCCNC(=N)N)NC(=O)[C@H](CCC(N)=O)NC(=O)[C@@H](NC(=O)[C@H](C)NC(=O)[C@@H]1CSSC[C@H](NC(=O)[C@@H](N)CCCCNC(=O)COCCOCCNC(=O)CC[C@H](NC(=O)CCCCCCCCCCCCCCCCCCC(=O)O)C(=O)O)C(=O)N[C@@H](CC(N)=O)C(=O)N[C@@H]([C@@H](C)O)C(=O)N[C@@H](C)C(=O)N[C@@H]([C@@H](C)O)C(=O)N1)[C@@H](C)O)C(=O)N1CCC[C@H]1C(=O)N[C@@H](CO)C(=O)N[C@@H](CO)C(=O)N[C@H](C(=O)N[C@@H](CC(N)=O)C(=O)N[C@H](C(=O)NCC(=O)N[C@@H](Cc1c[nH]cn1)C(=O)N[C@@H](CC(N)=O)C(=O)N[C@H](C(=O)N[C@@H](Cc1ccc(O)cc1)C(N)=O)[C@@H](C)O)C(C)C)[C@@H](C)O
notes: also called compound 76
B4: N^ε1-[2-[2-[2-(19-carboxynonadecanoylamino)ethoxy]ethoxy]acetyl]-[His14,Arg17,Pro21,Pro27]-h-amylin (peptide)
peptide: K([AEEA-C20 diacid])CNTATCATQRLAHFLRHSSPNFGAIPSSTNVGSNTY-NH2
modifications: disulfide 2-7; N-terminus assumed
SMILES: CC[C@H](C)[C@H](NC(=O)[C@H](C)NC(=O)CNC(=O)[C@H](Cc1ccccc1)NC(=O)[C@H](CC(N)=O)NC(=O)[C@@H]1CCCN1C(=O)[C@H](CO)NC(=O)[C@H](CO)NC(=O)[C@H](Cc1c[nH]cn1)NC(=O)[C@H](CCCNC(=N)N)NC(=O)[C@H](CC(C)C)NC(=O)[C@H](Cc1ccccc1)NC(=O)[C@H](Cc1c[nH]cn1)NC(=O)[C@H](C)NC(=O)[C@H](CC(C)C)NC(=O)[C@H](CCCNC(=N)N)NC(=O)[C@H](CCC(N)=O)NC(=O)[C@@H](NC(=O)[C@H](C)NC(=O)[C@@H]1CSSC[C@H](NC(=O)[C@@H](N)CCCCNC(=O)COCCOCCNC(=O)CCCCCCCCCCCCCCCCCCC(=O)O)C(=O)N[C@@H](CC(N)=O)C(=O)N[C@@H]([C@@H](C)O)C(=O)N[C@@H](C)C(=O)N[C@@H]([C@@H](C)O)C(=O)N1)[C@@H](C)O)C(=O)N1CCC[C@H]1C(=O)N[C@@H](CO)C(=O)N[C@@H](CO)C(=O)N[C@H](C(=O)N[C@@H](CC(N)=O)C(=O)N[C@H](C(=O)NCC(=O)N[C@@H](CO)C(=O)N[C@@H](CC(N)=O)C(=O)N[C@H](C(=O)N[C@@H](Cc1ccc(O)cc1)C(N)=O)[C@@H](C)O)C(C)C)[C@@H](C)O
notes: also called compound 90

What was measured:
[1] = biological target: T1, human calcitonin receptor; assay: ratio of hCTR IC50 to hAmylin-R IC50 (reference: human amylin receptor)
Summary of the method: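 Competition binding by SPA uses membrane preparations (35 ng/μL final) in pH 7.4 Hepes buffer with 1 mM CaCl2 and 5 mM MgCl₂. Incubation lasts 120 min at 25° C, and IC₅₀ comes from one-site fitting.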

[2] = biological target: T1, human calcitonin receptor; assay: SPA competition on BHK cell membranes, 125I-calcitonin as radioligand (Assay VII)
Summary of the method: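 BHK hCTR membranes 35 ng/μL + SPA beads 0.05 mg/well; buffer 50 mM Hepes pH 7.4, 1 mM CaCl2, 5 mM MgCl₂, 0.1% OA, 0.02% Tween20. 120 min, 25° C., shaking. Scintillation count; IC50 by one-site binding competition.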

[3] = biological target: T2, human calcitonin receptor; assay: SPA radioligand competition (125I-calcitonin), membranes of BHK cells with human calcitonin receptor
Description: Membranes were prepared in the following way; the cells were rinsed with PBS and incubated with Versene for approximately 5 min before harvesting. The cells were flushed with PBS and the cell-suspension was centrifuged for 5 min at 1000 rpm. Cells were homogenized (Ultrathurrax) in a buffer containing 20 mM Na-HEPES and 10 mM EDTA (pH 7.4) and centrifuged at 20.000 rpm for 15 min. The resulting pellet was resuspended, homogenized and centrifuged (20.000 rpm, 15 min) in a buffer containing 20 mM Na-HEPES and 0.1 mM EDTA (pH 7.4, buffer 2). The resulting pellet was resuspended in buffer 2 and protein concentration was measured (BCA protein Assay, Pierce). The homogenate was kept cold during the whole procedure. The membranes were kept at −80° C. until use. Assay was performed in a 384 well Optiplate (PerkinElmer) in a total volume of 40 ul. Membranes were mixed with SPA beads. Final concentration of membranes 35 ng/μL final and Final concentration of SPA beads was 0.05 mg/well. Test-compounds were dissolved in DMSO and further diluted in assay buffer (50 mM Hepes, pH 7.4, 1 mM CaCl2, 5 mM MgCl₂, 0.1% OA and 0.02% Tween20). […] The final mixture was incubated for 120 min with shaking at 400 rpm at 25° C. prior to centrifugation (1500 rpm, 10 min). Samples were analyzed on TopCounter™ (Packard). The […] was calculated using (one site binding competition analysis) GraphPad Prism5 as a measure of receptor affinity.

[4] = biological target: T2, human calcitonin receptor; assay: ratio of IC50 at human calcitonin receptor to IC50 at human amylin receptor (SPA competition assays)
Description: The resulting pellet was resuspended, homogenized and centrifuged (20.000 rpm, 15 min) in a buffer containing 20 mM Na-HEPES and 0.1 mM EDTA (pH 7.4, buffer 2). The resulting pellet was resuspended in buffer 2 and protein concentration was measured (BCA protein Assay, Pierce). The homogenate was kept cold during the whole procedure. The membranes were kept at −80° C. until use. The assay was performed in a 384 well Optiplate (PerkinElmer) in a total volume of 40 ul. Membranes were mixed with SPA beads. Final concentration of membranes 35 ng/μL final and SPA beads was 0.05 mg/well. Test-compounds were dissolved in DMSO and further diluted in assay buffer (50 mM Hepes, pH 7.4, 1 mM CaCl2, 5 mM MgCl₂, 0.1% OA and 0.02% Tween20). […] The final mixture was incubated with shaking at 400 rpm for 120 min at 25° C. prior to centrifugation (1500 rpm, 10 min). Samples were analyzed on TopCounter™ (Packard). The IC₅₀ was calculated using (one site binding competition analysis) GraphPad Prism5 as a measure of receptor affinity.
Membranes were prepared in the following way; the cells were rinsed with PBS and incubated with Versene for approximately 5 min before harvesting. The cells were flushed with PBS and the cell-suspension was centrifuged for 5 min at 1000 rpm. Cells were homogenized (Ultrathurrax) in a buffer containing 20 mM Na-HEPES and 10 mM EDTA (pH 7.4) and centrifuged at 20.000 rpm for 15 min. The resulting pellet was resuspended, homogenized and centrifuged (20.000 rpm, 15 min) in a buffer containing 20 mM Na-HEPES and 0.1 mM EDTA (pH 7.4, buffer 2). The resulting pellet was resuspended in buffer 2 and protein concentration was measured (BCA protein Assay, Pierce). The homogenate was kept cold during the whole procedure. The membranes were kept at −80° C. until use. Assay was performed in a 384 well Optiplate (PerkinElmer) in a total volume of 40 ul. Membranes were mixed with SPA beads.

Row | Binder | Ratio hCT/hAmylin binding [1] | IC50 [2] [nM] | IC50 [3] [nM] | Ratio hCT/hAmylin binding [4]
1 | B1 | 18.5 | 10.8 |  | 
2 | B2 | 59.4 | 22.7 |  | 
3 | B3 |  |  | 17.2 | 80
4 | B4 |  |  | 2.57 | 42.2
